The values below come from patent US20260085129A1 (ECO ANIMAL HEALTH, published 2026).

The target of assay [1] is T1, porcine CD163 with deletion of SRCR domain 5, on pPAMΔ5 cells (porcine, UniProt Q2VL90 47-1115).
T1 construct: also called pPAMΔ5 domain cells; pPAMΔ5 WT cells
T1 sequence: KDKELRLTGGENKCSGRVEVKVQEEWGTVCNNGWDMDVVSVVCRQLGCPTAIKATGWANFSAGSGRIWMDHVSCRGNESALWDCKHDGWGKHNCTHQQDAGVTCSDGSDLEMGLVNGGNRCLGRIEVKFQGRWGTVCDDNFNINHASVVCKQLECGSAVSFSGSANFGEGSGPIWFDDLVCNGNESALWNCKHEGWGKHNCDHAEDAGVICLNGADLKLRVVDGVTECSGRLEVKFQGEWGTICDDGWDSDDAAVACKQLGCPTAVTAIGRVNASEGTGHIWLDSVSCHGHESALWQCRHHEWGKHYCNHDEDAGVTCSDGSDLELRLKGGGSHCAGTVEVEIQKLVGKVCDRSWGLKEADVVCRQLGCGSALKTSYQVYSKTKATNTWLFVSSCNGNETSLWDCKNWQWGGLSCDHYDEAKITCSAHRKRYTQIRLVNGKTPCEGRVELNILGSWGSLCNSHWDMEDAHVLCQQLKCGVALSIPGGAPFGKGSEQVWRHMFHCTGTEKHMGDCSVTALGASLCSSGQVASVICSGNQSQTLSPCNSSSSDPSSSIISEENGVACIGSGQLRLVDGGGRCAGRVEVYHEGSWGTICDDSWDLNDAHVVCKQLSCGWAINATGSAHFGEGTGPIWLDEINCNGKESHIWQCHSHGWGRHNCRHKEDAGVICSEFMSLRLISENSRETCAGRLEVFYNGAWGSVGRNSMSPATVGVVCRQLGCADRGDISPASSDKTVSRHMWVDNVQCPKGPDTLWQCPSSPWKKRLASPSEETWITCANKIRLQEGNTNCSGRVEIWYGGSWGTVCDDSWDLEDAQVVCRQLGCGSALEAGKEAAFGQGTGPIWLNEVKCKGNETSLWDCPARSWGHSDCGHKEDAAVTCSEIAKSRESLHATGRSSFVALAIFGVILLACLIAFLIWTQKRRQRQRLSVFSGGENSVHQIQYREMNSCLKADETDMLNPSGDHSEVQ
As to the kind of experiment: P.E. binding FACS on pPAMΔ5 cells. Here is the method: Periplasmic Extract (P.E) from the selected clones were incubated with anti-c-myc antibody (Roche; Cat. nr. 11667203001), specific to the c-myc tag present in the soluble VHH, for 30 minutes with agitation at room temperature (RT). The mix (P.E+anti-c-myc antibody) was added to the pPAM WT or pPAMΔ5 domain (cells with deletion of SRCR domain 5) and incubated for 60 min at 4° C. with gentle shaking.
Cells were washed 3× with 150 μl/well of FACS Buffer and incubated with 50 μl/well of the secondary antibody GAM-APC for 30 min at 4° C. and protected from the light, with shaking.

In the next assay the target is T2, pCD163-SRCR-FL-PST2-His (porcine, UniProt Q2VL90 51-1044).
T2 construct: also called pCD163-1-PST2-His; pCD163-SRCR1-PST2; not shown: His tag
T2 sequence: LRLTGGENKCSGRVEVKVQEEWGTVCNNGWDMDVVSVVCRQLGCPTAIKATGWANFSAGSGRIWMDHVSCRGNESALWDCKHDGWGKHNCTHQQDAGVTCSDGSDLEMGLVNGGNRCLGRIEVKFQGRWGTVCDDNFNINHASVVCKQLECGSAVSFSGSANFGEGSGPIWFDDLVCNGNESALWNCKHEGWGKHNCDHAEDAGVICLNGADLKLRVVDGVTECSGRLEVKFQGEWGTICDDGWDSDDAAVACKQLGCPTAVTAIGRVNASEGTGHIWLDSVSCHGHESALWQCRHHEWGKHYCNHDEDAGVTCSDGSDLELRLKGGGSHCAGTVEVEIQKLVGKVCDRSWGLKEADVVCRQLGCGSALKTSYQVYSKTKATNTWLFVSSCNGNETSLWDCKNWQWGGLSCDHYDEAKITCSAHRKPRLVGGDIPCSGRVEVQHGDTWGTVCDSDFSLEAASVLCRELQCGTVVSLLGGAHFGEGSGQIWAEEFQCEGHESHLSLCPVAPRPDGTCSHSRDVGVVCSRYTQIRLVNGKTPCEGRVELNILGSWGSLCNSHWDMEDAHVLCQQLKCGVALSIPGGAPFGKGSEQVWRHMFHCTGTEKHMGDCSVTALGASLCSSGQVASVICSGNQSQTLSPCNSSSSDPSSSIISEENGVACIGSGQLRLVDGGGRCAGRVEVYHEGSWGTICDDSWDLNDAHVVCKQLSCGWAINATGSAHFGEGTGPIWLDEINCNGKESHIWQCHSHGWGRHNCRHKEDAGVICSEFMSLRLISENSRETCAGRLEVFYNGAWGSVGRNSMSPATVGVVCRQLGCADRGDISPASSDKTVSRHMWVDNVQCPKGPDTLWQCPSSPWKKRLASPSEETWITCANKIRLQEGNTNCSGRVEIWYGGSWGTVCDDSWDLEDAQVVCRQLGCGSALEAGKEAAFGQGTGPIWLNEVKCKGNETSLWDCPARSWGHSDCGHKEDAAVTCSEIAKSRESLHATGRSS
In words: P.E. binding ELISA, antigen coated at 1 ug/ml, anti-c-Myc detection. On the procedure: For P.E. binding ELISA, MaxiSorp™ high protein-binding capacity 96 well ELISA plates, were coated with 1 μg/ml of pCD163-SRCR-FL-PST2-His or huCD6-pPST2-His, or pCD163-SRCR1-9-huFc protein, diluted in PBS, overnight at 4° C. The next day, plates were washed 3× with PBS Tween 0.05% (pH 7.4) and blocked for 1 hour at room temperature with 250 μl/well of 4% Marvel/PBS. After blocking, plates were washed 3× with PBS Tween 0.05% (pH7.4) and incubated per well with 20 μl of P.E+80 μl in 1% Marvel/PBS (pH7.4), for 1 hour at room temperature (RT) with shaking. Plates were washed 3× with PBS Tween 0.05% (pH7.4) and incubated with 100 μl of anti-c-Myc antibody (Roche; Cat. nr. 11667203001) followed by secondary antibody DAM-HRP (JIR; Cat. nr. 715-035-150) in 1% Marvel/PBS (pH7.4), for 1 hour at RT with shaking. Plates were washed 3× with PBS Tween 0.05% (pH7.4) and the substrate solution (TMB solution) was added to the plates. Reaction was stopped with H2SO4 and plates read in the plate reader at 450 nm.
For orientation: ELISA stands for enzyme-linked immunosorbent assay.

B1: Clone 39-H17B11 VHH antibody (VHH)
VHH: QVQLVESGGGLVQAGGSLRLSCAASGRTFSSYAMGWFRQTPGKDREFVARIGWTGGTTIYADSVKGRFTISRDNAKNTVYLQMNSLKPEDTAVYYCAADQAGWRTAGVRNTYEYDYWGQGTQVTVSS
notes: Llama single domain antibody; also called clone 17B11; not shown: tags: c-myc tag on the soluble VHH in periplasmic extracts; FLAG and His tags on the purified VHH
As to B1, in assay [1], the binding result is given as “no binding”. The “O.D. 450 nm” value with pCD163-SRCR-FL-PST2-His was found to be 0.066 O.D. 450 nm.
